Measurements taken from publication doi:10.1101/2025.06.13.659133, “Anti-activin treatment increases T cell infiltration in breast and pancreatic tumours and promotes survival in a SMAD4-null mouse pancreatic cancer model” (bioRxiv, 2025).

T1: ACVR2B-ECD (used in SPR) (UniProt Q13705 19-137)
T1 construct: also called ACVR2B extracellular domain (ECD)
T1 sequence (looked up): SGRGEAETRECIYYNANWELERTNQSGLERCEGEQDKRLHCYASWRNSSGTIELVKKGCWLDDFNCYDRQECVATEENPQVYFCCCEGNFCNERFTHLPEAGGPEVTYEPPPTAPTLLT

T2: Noggin (UniProt Q13253 28-232)
T2 construct: Noggin, bought from Peprotech; source: bought: Peprotech
T2 sequence (looked up): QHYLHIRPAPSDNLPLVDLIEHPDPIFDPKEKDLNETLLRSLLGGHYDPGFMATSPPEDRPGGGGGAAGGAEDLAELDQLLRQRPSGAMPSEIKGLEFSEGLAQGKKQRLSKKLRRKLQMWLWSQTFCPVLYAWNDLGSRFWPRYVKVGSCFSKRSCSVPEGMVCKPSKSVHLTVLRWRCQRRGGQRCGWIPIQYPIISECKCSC

B1: activin A (immobilised on the SPR chip) (ligand, UniProt P08476 311-426, looked up)
chain: GLECDGKVNICCKKQFFVSFKDIGWNDWIIAPSGYHANYCEGECPSHIAGTSGSSLSFHSTVINHYRMRGHSPFANLKSCCVPTKLRPMSMLYYDDGQNIIKKDIQNMIVEECGCS
B2: BMP2 (ligand, UniProt P12643 283-396, looked up)
chain: QAKHKQRKRLKSSCKRHPLYVDFSDVGWNDWIVAPPGYHAFYCHGECPFPLADHLNSTNHAIVQTLVNSVNSKIPKACCVPTELSAISMLYLDENEKVVLKNYQDMVVEGCGCR
notes: BMP2, bought from Peprotech; source: bought: Peprotech

Experiments:
ACVR2B-ECD (used in SPR) = target: T1, ACVR2B-ECD (used in SPR); experiment: SPR; activin A, TGF-β3 or BMP2 immobilised on a CM4 chip (EDC-NHS, up to 400 RU); antibodies or control binders flowed over; BIAcore T200; 10 mM CHES, 150 mM NaCl, 3 mM EDTA, 0.01% P20, pH 8.0; 1:1 kinetic model; settings: both partners purified
Noggin = target: T2, Noggin; experiment: as above; settings: both partners purified

| Binder | Kd (ACVR2B-ECD (used in SPR)) [nM] | Kd (Noggin) [nM] |
| --- | --- | --- |
| B1 | 114 | – |
| B2 | – | 1.26 |
